Test results from the supplement of paper PMC6757056.
± gives the standard deviation of the averaged measurements.

B1: library; a variant is named by its letters at N, in order (parent)
chain: GCUGUCACCGAGAAACUGUGAAGUAUAUCUUAAACCUGGGCACUUAAAAGAUAUAUGGAGUUAGUAGUGCAACCUGCUCGGUCUGAUGAGUCCNNNNNNGGACGAAACAGC

Columns and labels:
cyclic di-GMP [1] = variants of: B1; test: FACS-Seq fitted mean relative fluorescence mCherry/BFP without ligand (log10 relative fluorescence); HEK293T; ligand: cyclic di-GMP (c-di-GMP-II aptamer); higher = higher reporter protein expression; settings: ligand present: no
In short: (§1)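 The ribozyme switch sat in an mCherry reporter, delivered by lentivirus into HEK293T libraries along with an EF1α-BFP marker. Enriched cells were incubated 48 h with or without ligand, sorted into 6 bins by mCherry/BFP, and bin genomic DNA was PCR-amplified, barcoded and MiSeq-sequenced. Fluorescence equals the fitted normal mean of the bin counts after normalization. Those log10(mCherry/BFP) means were scaled to five spiked-in control ribozymes.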

cyclic di-GMP [2] = variants of: B1; test: normalized RNA/DNA level without ligand (relative to sTRSVctl = 100) (log10 (% of sTRSVctl)); HEK293T; ligand: cyclic di-GMP (c-di-GMP-II aptamer); higher = less ribozyme self-cleavage, higher mRNA level; settings: reporter: mCherry (pCS4076), ligand present: no
In short: (§2)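 Ribozyme switch library plasmids linked to reporters were introduced into HEK293T cells at 4 µg per 6-well well, with ligand, if any, added 1 h before. Total RNA was extracted with EDTA 72 h later, reverse-transcribed, amplified, barcoded and sequenced. RNA level was computed from RNA over DNA reads relative to a spiked-in non-cleaving sequence or the top sequences, then scaled and log-transformed. The top set was 25 sequences, values were ×100 and log10, and the cutoff was ≥100 DNA reads.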

cyclic di-GMP [3] = variants of: B1; test: FACS-Seq fitted mean relative fluorescence mCherry/BFP with ligand (log10 relative fluorescence); HEK293T; ligand: cyclic di-GMP (c-di-GMP-II aptamer); ligand concentration (+) FACS-Seq: 1 mM; higher = higher reporter protein expression; settings: ligand present: yes
In short: as §1

cyclic di-GMP [4] = variants of: B1; test: normalized RNA/DNA level with ligand (relative to sTRSVctl = 100) (log10 (% of sTRSVctl)); HEK293T; ligand: cyclic di-GMP (c-di-GMP-II aptamer); ligand concentration (+) RNA-Seq: 1 mM; higher = less ribozyme self-cleavage, higher mRNA level; settings: reporter: mCherry (pCS4076), ligand present: yes
In short: as §2

Row | Variant | FACS-Seq fitted mean (log10) (cyclic di-GMP [1]) | normalized RNA/DNA level without ligand (log10) (cyclic di-GMP [2]) | FACS-Seq fitted mean (log10) (cyclic di-GMP [3]) | normalized RNA/DNA level with ligand (log10) (cyclic di-GMP [4])
1 | AGUUAG | -0.315 ± 0.053 | 1.54 ± 0.059 | -0.0278 ± 0.059 | 1.75 ± 0.11
2 | CUCAGA | -0.23 ± 0.18 | 1.64 ± 0.041 | 0.0277 ± 0.043 | 1.78 ± 0.064
3 | CUACGA | -0.199 ± 0.061 | 1.62 ± 0.038 | 0.0797 ± 0.066 | 1.79 ± 0.086
4 | GGUUCC | 0.28 ± 0.17 | 1.8648 ± 0.0011 | 0.396 ± 0.056 | 1.96 ± 0.085
5 | CGGUGU | -0.862 ± 0.11 | 1.68 ± 0.02 | -0.65 ± 0.12 | 1.88 ± 0.14
6 | CGGUGA | -0.266 ± 0.011 | 1.4 ± 0.13 | 0.0909 ± 0.043 | 1.64 ± 0.12
7 | GUAGCA | 0.112 ± 0.04 | 1.83 ± 0.043 | 0.201 ± 0.053 | 1.87 ± 0.13
8 | GUAUUG | -0.534 ± 0.043 | 1.53 ± 0.044 | -0.274 ± 0.037 | 1.71 ± 0.078
9 | GUAUUU | -0.574 ± 0.0067 | 1.686 ± 0.0056 | -0.186 ± 0.035 | 1.82 ± 0.085
10 | GUAACG | -0.145 ± 0.033 | 1.678 ± 0.014 | 0.124 ± 0.056 | 1.78 ± 0.14
11 | GUCCUG | -0.102 ± 0.019 | 1.68 ± 0.022 | 0.19 ± 0.09 | 1.83 ± 0.14
12 | CUACAA | -0.602 ± 0.069 | 1.48 ± 0.11 | -0.356 ± 0.025 | 1.68 ± 0.067
13 | CUACAC | -0.167 ± 0.016 | 1.699 ± 0.0052 | 0.0624 ± 0.12 | 1.83 ± 0.11
14 | CUAAAU | -0.443 ± 0.034 | 1.5 ± 0.1 | -0.0872 ± 0.068 | 1.69 ± 0.044
15 | CUAAAA | -0.3961 ± 0.0027 | 1.35 ± 0.057 | -0.114 ± 0.1 | 1.61 ± 0.075
16 | UGUAUA | -0.0844 ± 0.055 | 1.73 ± 0.083 | 0.221 ± 0.027 | 1.87 ± 0.073
17 | CUCCGU | 0.15 ± 0.23 | 1.8 ± 0.02 | 0.423 ± 0.0021 | 1.88 ± 0.093
18 | CGUGGA | -0.426 ± 0.029 | 1.41 ± 0.1 | -0.0424 ± 0.071 | 1.62 ± 0.035

Row | Variant | FACS-Seq fitted mean (log10) (cyclic di-GMP [1]) | normalized RNA/DNA level without ligand (log10) (cyclic di-GMP [2]) | FACS-Seq fitted mean (log10) (cyclic di-GMP [3]) | normalized RNA/DNA level with ligand (log10) (cyclic di-GMP [4])
19 | CGUUUU | -0.597 ± 0.085 | 1.46 ± 0.052 | -0.329 ± 0.11 | 1.61 ± 0.098
20 | CGUUUA | -0.544 ± 0.037 | 1.32 ± 0.077 | -0.288 ± 0.098 | 1.46 ± 0.064
21 | GUAGGA | -0.422 ± 0.02 | 1.43 ± 0.081 | -0.137 ± 0.14 | 1.64 ± 0.11
22 | AUAAUA | -0.503 ± 0.0074 | 1.58 ± 0.0077 | -0.158 ± 0.15 | 1.75 ± 0.092
23 | AUAAUU | -0.558 ± 0.032 | 1.55 ± 0.027 | -0.213 ± 0.038 | 1.72 ± 0.087
24 | CUAGAA | -0.5 ± 0.054 | 1.38 ± 0.091 | -0.134 ± 0.032 | 1.6 ± 0.1
25 | CUAGAC | -0.239 ± 0.047 | 1.67 ± 0.053 | -0.0103 ± 0.011 | 1.81 ± 0.093
26 | UUACUA | -0.111 ± 0.12 | 1.64 ± 0.029 | 0.155 ± 0.095 | 1.77 ± 0.13
27 | AUAGAC | -0.109 ± 0.028 | 1.61 ± 0.05 | 0.0802 ± 0.041 | 1.76 ± 0.091
28 | AUAGAA | -0.406 ± 0.06 | 1.39 ± 0.077 | -0.217 ± 0.058 | 1.61 ± 0.093
29 | AGUUUA | -0.489 ± 0.04 | 1.53 ± 0.068 | -0.25 ± 0.013 | 1.72 ± 0.12
30 | GUCAGG | -1.25 ± 0.11 | 1.74 ± 0.063 | -0.78 ± 0.093 | 1.81 ± 0.087
31 | CGUCUC | 0.2 ± 0.16 | 1.766 ± 0.015 | 0.3267 ± 0.0019 | 1.87 ± 0.11
32 | CGUCUU | -0.365 ± 0.028 | 1.49 ± 0.033 | -0.103 ± 0.064 | 1.66 ± 0.12
33 | CGUCUA | -0.152 ± 0.067 | 1.26 ± 0.082 | 0.127 ± 0.011 | 1.45 ± 0.1
34 | CUAUAA | -0.473 ± 0.065 | 1.41 ± 0.079 | -0.255 ± 0.021 | 1.6 ± 0.11
35 | AGUAGG | -1.02 ± 0.098 | 1.63 ± 0.097 | -0.997 ± 0.068 | 1.75 ± 0.049
